{"source": "patent US20150366960A1", "key": {"[1]": {"target": "RSV-F protein (as used in the D25 competition binding assay) (respiratory syncytial virus, strain not stated)", "experiment": "competition ELISA on infected cells against biotin-labeled D25 at 100 ng/ml constant, A450 [cont'd) D]"}, "[2]": {"target": "RSV A2 F protein on untreated cells (pre-fusion form) (Human respiratory syncytial virus, strain A2) (UniProt P03420)"}, "[3]": {"target": "RSV-F protein (as used in the D25 competition binding assay) (respiratory syncytial virus, strain not stated)"}, "[4]": {"target": "RSV A2 F protein on untreated cells (pre-fusion form) (Human respiratory syncytial virus, strain A2) (UniProt P03420)", "experiment": "cell-based or functional assay"}, "[5]": {"target": "HR1 construct containing amino acids 153-221 of RSV A2 F protein (Human respiratory syncytial virus, strain A2)"}, "[6]": {"target": "SK-epitope: amino acids 195-228 of RSV A2 F protein (C212S) in the inhibitor loop of Ecballium elate (Human respiratory syncytial virus, strain A2 (insert); Ecballium elaterium (scaffold))"}, "[7]": {"target": "RSV-B F protein from strain 18537 (wild type) (Human respiratory syncytial virus, strain 18537 (subtype B)) (UniProt P13843)"}, "[8]": {"target": "RSV A2 F protein on untreated cells (pre-fusion form) (Human respiratory syncytial virus, strain A2) (UniProt P03420)", "remark": "listed apart in the source"}, "[9]": {"target": "MARM A1 F protein (RSV A2 F, N208Y) (Human respiratory syncytial virus, D25-resistant mutant of strain A2) (UniProt P03420)", "experiment": "cell-based or functional assay"}, "[10]": {"target": "RSV-B F protein from strain 18537 (wild type) (Human respiratory syncytial virus, strain 18537 (subtype B)) (UniProt P13843)", "experiment": "cell-based or functional assay"}, "[11]": {"target": "MARM B2 F protein (RSV B 18537 F, L204V) (Human respiratory syncytial virus, D25-resistant mutant of strain 18537) (UniProt P13843)", "experiment": "cell-based or functional assay"}, "[12]": {"target": "MARM B1 F protein (RSV B 18537 F, N201D) (Human respiratory syncytial virus, D25-resistant mutant of strain 18537) (UniProt P13843)", "experiment": "cell-based or functional assay"}, "[13]": {"target": "RSV-B F protein from strain 18537 (wild type) (Human respiratory syncytial virus, strain 18537 (subtype B)) (UniProt P13843)", "remark": "listed apart in the source"}, "[14]": {"target": "MARM B2 F protein (RSV B 18537 F, L204V) (Human respiratory syncytial virus, D25-resistant mutant of strain 18537) (UniProt P13843)"}, "[15]": {"target": "MARM B1 F protein (RSV B 18537 F, N201D) (Human respiratory syncytial virus, D25-resistant mutant of strain 18537) (UniProt P13843)"}, "[16]": {"target": "MARM A1 F protein (RSV A2 F, N208Y) (Human respiratory syncytial virus, D25-resistant mutant of strain A2) (UniProt P03420)"}, "[17]": {"target": "MARM B1 F protein (RSV B 18537 F, N201D) (Human respiratory syncytial virus, D25-resistant mutant of strain 18537) (UniProt P13843)", "remark": "listed apart in the source"}, "[18]": {"target": "MARM B2 F protein (RSV B 18537 F, L204V) (Human respiratory syncytial virus, D25-resistant mutant of strain 18537) (UniProt P13843)", "remark": "listed apart in the source"}, "[19]": {"target": "MARM A1 F protein (RSV A2 F, N208Y) (Human respiratory syncytial virus, D25-resistant mutant of strain A2) (UniProt P03420)", "remark": "listed apart in the source"}}, "note": "Read-outs that look alike come from different tables or passages of the source.", "data": [{"substance": "anti-RSV-F antibody AM22", "values": [{"measurement": "IC50 (read off the curve)", "setting": "[1]", "result": 2, "unit": "µg/mL"}]}, {"substance": "monoclonal antibody D25", "values": [{"measurement": "IC50 (read off the curve)", "setting": "[2]", "result": 10, "unit": "µg/mL"}, {"measurement": "IC50 (read off the curve)", "setting": "[3]", "result": 0.6, "unit": "µg/mL"}, {"measurement": "RSV microneutralization assay (antibody concentration able to neutralize)", "setting": "[4]", "result": 1, "unit": "µg/mL"}, {"measurement": "Kd", "setting": "[5]", "result": 1.9, "unit": "nM"}, {"measurement": "Kd", "setting": "[6]", "result": 0.0585, "unit": "nM"}, {"measurement": "IC50 (read off the curve)", "setting": "[7]", "result": 0.07, "unit": "µg/mL"}, {"measurement": "IC50 (read off the curve)", "setting": "[8]", "result": 0.1, "unit": "µg/mL"}]}, {"substance": "motavizumab (antibody)", "values": [{"measurement": "RSV microneutralization assay (antibody concentration able to neutralize)", "setting": "[9]", "result": "< 100", "unit": "ng/mL"}, {"measurement": "RSV microneutralization assay (antibody concentration able to neutralize)", "setting": "[10]", "result": "< 100", "unit": "ng/mL"}, {"measurement": "RSV microneutralization assay (antibody concentration able to neutralize)", "setting": "[11]", "result": "< 100", "unit": "ng/mL"}, {"measurement": "RSV microneutralization assay (antibody concentration able to neutralize)", "setting": "[12]", "result": "< 100", "unit": "ng/mL"}, {"measurement": "IC50 (read off the curve)", "setting": "[13]", "result": 0.1, "unit": "µg/mL"}, {"measurement": "IC50 (read off the curve)", "setting": "[14]", "result": 0.04, "unit": "µg/mL"}, {"measurement": "IC50 (read off the curve)", "setting": "[15]", "result": 0.06, "unit": "µg/mL"}, {"measurement": "IC50 (read off the curve)", "setting": "[16]", "result": 0.1, "unit": "µg/mL"}]}, {"substance": "palivizumab (antibody)", "values": [{"measurement": "IC50 (read off the curve)", "setting": "[17]", "result": 200, "unit": "µg/mL"}, {"measurement": "IC50 (read off the curve)", "setting": "[18]", "result": 300, "unit": "µg/mL"}, {"measurement": "IC50 (read off the curve)", "setting": "[19]", "result": 40, "unit": "µg/mL"}, {"measurement": "RSV microneutralization assay (antibody concentration able to neutralize)", "setting": "[9]", "result": 100000, "unit": "ng/mL"}, {"measurement": "RSV microneutralization assay (antibody concentration able to neutralize)", "setting": "[11]", "result": 100000, "unit": "ng/mL"}, {"measurement": "RSV microneutralization assay (antibody concentration able to neutralize)", "setting": "[12]", "result": 100000, "unit": "ng/mL"}]}]}
